# From the domain aggregation screens of Martell et al. (2025)
# Test: soluble fraction after stress (log2 fold change); higher = more stays soluble; pooled small domains, quantitative proteomics
# Settings: stress: 50 degC
# How it was run: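 Quantitative proteomics served as the high-throughput read-out for pooled custom libraries of small protein domains. Each was stressed at 50°C. Aggregation propensity is expressed as the base-two log fold change in soluble protein after stress. A higher value means a larger share of the protein remains in solution.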
row,Sequence,soluble fraction (log2)
1,HMEKKDTYTVKNGDSLWGIARTELGDGGRFREIYTLNADTIEAEAKKRGRSSSSEGHWIYPGSVLRLP,0.0469
2,HMTSRWEIGYNVAKKYYDEHGNLDVERAVYDNFELKKWLNTQRYKNSAGTLAEKYKIKLDELGMNWER,0.0505
3,HMSSIFTRIIAGEIPSYKVAEDENYYAFLDINPLTKGHTLVVPKMEVDYIFDLDDKTLAGMMLFAKKG,-0.0969
4,HMFYNELMNFIVYKDSQKIGKIVNINDKLPQPVFEVLINDKKFMVPIHDDFIEKIDKEKKSIHIVIPDGLL,0.0184
5,HMNVNALIGQEGIVIKEINSGSNKIGQVKISGDTWSAVTTNDFTNAIPVGSNVKILKIDGVNLIVEPVY,-0.0724
6,HMAQLSDMLTYLRKRKGLSQQELANTLKISRSAIGMYETGKREPDLETLEVFADFYNVDMNTLTGKA,-0.143
7,HMRFEWFDTLTDREKEIFGLIATGFDNQQIADRLQLAEQTVRNNISTIYSKLEVKDRFEIIRLANTI,-0.706
8,HMGTKRWELPRRVQQMATQHGKSISTAAAEELVSRSGENTRMLDNDLVKLAQMVEAPQIELADVERWIVR,0.221
9,HMAKLGITQREQEVLQLLVTGKTYKEIAAELFISLPTVKTHVSNIYSKAKVRNRLELSNLINYI,-2.73
10,HMPELTERELEVLLLTARGLPSSEAARLLFITRRTVAAHLTSIYGKLGARNKTEAVLAALKRGIIMLDQIG,-4
11,HMNSNQESFENWLSANSWYNKDRAMRVFADSLGQELRNSGVSFEKALTQISAEVRKEFSHKFQ,-0.163
12,HMVDDTGLPTVLISDGRLLERNLHRLHLDHTWLQRRLEENNIPSIQSLFLLTVDKQHQLYFLKK,-1.21
13,HMNDLIFSTLAEYDRDTITEIISVVDNTRGIGYEVELVRKDLIAMAAQAEARRDYLPSVIGDVEVFKRNLL,0.0286
14,HMDINIETLNYYVGKAKIPLSELRISVKNIDLFLSGEKQPTFNQLSSIAKKLNIPTGLLLLDESIEV,-2.74
15,HMMLVKKMLNGIMMKEITIKELADQYDVSTRTIQLKIKKLGYEWDSKESIYRYVGKESEPLDVDFSTLI,-3.29
16,HMDAQNLQDQLFGFLKANPTQAYPAQTLADGLRLDDANAFTKVVQALAALERGGKVKVNEEGAFQYDAEK,0.0478
17,HMIPPGTITIEGAITKVPVFLDGKQIGTVPLTKEDVEPGKYRIRVLGVGRVITIDPGEKENVLFSGEDLGL,-0.142
18,HMDVEMLIDKYQLNDSEAEVLRFMKKNRQSLKTIGIRDVAKATYVSTATIINMAKKIGYSGYSELVFALGN,-0.0472
19,HMDYAQAQRQAESAIALRPDVERLRLLLIYALQKQGKLREAEQAAADAIKSGLDTPALRQARANLRP,-0.264
20,HMKSAYADVAIAKVQDYVNVRAENNEDSEVLGKLYNNSAATVLETTDDGWYKISSGSVTGYVKSEYVVVG,0.0784
21,HMPDLSEDEEKIVSLLRDNNDLNVNIIVMRTQLPSATVTSSLFSLELKGVVRMYAGGMYHLM,-1.7
22,HMPSLGADIRALRKSRKMTLVALADALGRSVGWLSQVERDKSHATIADLGRMAEVLDVSISSFL,-0.27
23,HMPPENVSVRREQIAEDKKTVYNVWVTKGNKTVLYSKVVYAWGGVYFFRDLNTSISENMYKQADAGLVN,0.0555
24,HMSKHATLLEALADLSVKLKPHSQLPSERALSEEYGVSRMTLRRAIDVLQARGYIYSVPSKGLFVSEP,-1.74
25,HMDRPARDEAQSWLADVLADGPVPTAEIREEAEAAGLAWRTIQRARIALSVEPIRGDGRNAWLWQLPG,-1.42

row,Sequence,soluble fraction (log2)
1,HMGEVISRSYPLLKTKAKPAEVSEALQKLIKAPATVTFDEKNEVFHINATRLQHTWAEGYFKGLHGK,0.0333
2,HMPGPAEMPGWITARAKKLGGQITPEAARALAAEMGSDTEQASREIEKLLTYVDYRRPVEEEDVALLTA,-0.0046
3,HMRKSNADALDGKTGIVKEEIKTGGYGYVGIDGDMWRSISESGEAIPAGTKVVVISHESIILTVKPA,-0.315
4,HMGELYGTDQYKDGDAQDTNIGKLLEVNIDGKWQVATTGTSRFEFAGVMDDNGHKLIMISVLPEAKTV,-0.18
5,HMNREYELTAEESGQRLDKYLAGEMTDLSRSRIKELVQAGEILVNGKKSKVSYKVQKDDLIQVIVLPLE,-0.285
6,HMPLDKDTTLDEIYRRFNMEHPADYKGHSLSMGDIVVFRQDGKQTAYYVDEGADYRQVPEFFVK,0.0346
7,HMTEKMILKWKEALERMNDDFTTKDWLNVVIHEMGKSERTAYGWLSDMKRSGIIKDLGYGSWLKVLE,-0.738
8,HMRSKTSYAVWTPIQIDAGSQMQALQSKGFNTVLMEGGISVGIRSDKAQAQALLNRLQGAGFTGQLREVN,-0.183
9,HMANYYEILGVKHDATEAEIKAAYKQAAKSAHPDAGGSNEKMQEVNAAWEVLGNAQKRAEYDARMA,0.0756
10,HMTQLPEVPVERGMVLEEVQSGWVGAVTRVEKSGGMHVVALEDRRGKSRSFRLGFGFLLEGQPIRLMPPAP,-1.42
11,HMINSFDYLQAIFTELMKSQSKMTNQDAAKRLFMQGKVAVSNRDREGLRMVLAQLVTLLPKEELGGLSTVS,0.0921
12,HMQQIQILPDGKIKLPDLSGTNMREAIEILHKGGLRMKPYGSGNAYQQKPAAGETVASGTTVEVLSL,0.0457
13,HMKHRTQMDIQQLPAIEGKGGFEYKISIIHLSTRIKYSEIHDNYNTTTIAKVYENAIERLPPF,-2.24
14,HMRRGKLGMASRLEQIPGIGPKKRKALLKAFGNSIDAIKSAPVEDLMKVKGINLVLAESIKEL,0.0167
15,HMGTGELLVHVIGAVHSPGVVRLPTGARVVDAIDAAGGAREDAQTEQLNLARLVDDGEQVRVPVVGESVD,-0.0181
16,HMHPRDREENKYLLLRGERIYEESIGEKRLYVEAALHKYEKALSSYDTGLIDEAKEEFKKFLEEIEEA,-0.0765
17,HMDIFLPDVKGYDLIPSFRRHLPDIDVIAMTGYNTRALESAVRQQDVLFYMIKPFEASQLKEILEHLVK,-0.221
18,HMQYKTRVINLSILEVGMVLGRDLINKDGKIIVKKDVAISDFLKDHLIGLSKIKEIEPQIYIKV,-1.08
19,HMKESRLFRILYYLLQHKKATAPELAEEFEVSVRTIYRDIDYISSAGVPIYATQGKDGGIAILDSF,-0.65
20,HMGMDALIGRRVFVSEEILPGDTGGRMAVDGDSWRAISVGTASNIPAGTEVRIRGHQSLVLEVEP,-0.116
21,HMKQENRLKILRKEKGLTQTKLANEIGVSKRTIIAWENDERQIKPDKAQQLADYFGVKEGYLLGYTNN,0.132
22,HMEDMMKALLDVVRAQHTATEGSEERPFDINDIIDMALNITGRPEEPEEQQELSDTIQKLAESLAPDIFP,-0.356
23,HMSVGDLLENLIRETRAQFSAPPESLGVAEKRRFVALLSQKGGFLLKGAVSRAASVLGVSEQTVYRYLKDS,-0.218
24,HMIPTTELAERLGTTKVANMIMLGALIKASGIISFDDMIKNLGELLGEGKAKLIKLNKEALEVGFN,-0.0172
25,HMLAYQRTYEKILEDLRNDVYPVNSLLPPEPKLEEIYHVSRTTVRRAIAQLADEGYVKVKQGYGTVVLKN,-0.339

row,Sequence,soluble fraction (log2)
1,HMLSYDDTVVIGRNLLENAMKQKNIALEQLTDEVLARLAKELQVESVEAMYAGIGSGKRPSSFIINRLEAH,-0.569
2,HMNIILFLDELHRLLSDLPPEERNQAIKYYEDYFEDAGPENEQAILKELGSPQELANQIKATT,-0.627
3,HMDAATDAIKAEVRALLEMANAQGIDTESIMLEAHEQTRNATEQDYYEAAKSALEAAIAGSNRDR,0.0377
4,HMADWTETELAALRRAYASGTTRVSYDGKSVDYGSAEDLLSRIRTLQGAASDVAADAVAAVDA,0.0524
5,HMVKFGERVKQLRLSAGMTQEQLAERIWVTKAAISNYELSERNPSPETIIKIAGVFGVTTDYLLGLED,-0.5
6,HMKLTNIQYETLKVVVESRAKIDEEEGITIKLEDIKKYIDQAISFTGLVGDDEDYKKLFADMEYRFKIQ,-2.38
7,HMSRARSRQTSMLEAVAGLGPARRRALLKQFGGLQGVLRAGIEDLSRAPGIGPALAQAIFEHLHPGA,-0.466
8,HMAEPYDEDKVMEHLYIKGKDVVIAHLKHLKEHNEHVWLKKGVEWMQKNQDRLGFDMMEVIYVVHNH,-0.0166
9,HMQRNLILKLDTDQPEIYKKLESIFVEINGLLVPFFIEKIIWSKQDSLNILFKNSSEALVEQLIGKNVFLP,0.0989
10,HMAKNYYEILGLKSDATLPEIKKAFKKLSKKFHPDKNRDDDGYFESMFKSINEAYQVLIDEDKRATFDSHH,-0.59
11,HMVPHTTSMVAEVQERLFNLNYDPGPINGRMDQATITAITRFQRNFSLPQTGQIDEGFLNTLRDARL,-0.981
12,HMTMIIQLDKNITQEQRQFLVEELNRLSISPNFVSTQFTNYIVGIPKKEFDIRLIGNLPGIADIHFV,-0.183
13,HMEVADAAQRKILQALQVQPLTVEQLSQELRTDTGDLLVSLSMMEITGLIRREAGNTFLAVFAPK,-0.448
14,HMSNFGERLRALRQDRQMTLQQASKVTGVAQSTLSKMENNQLSPTFNLMQKLAIGLGIDMPQLFAPVK,-0.108
15,HMGRSTQVPGVEKMTYSQAVQLLHDHGFRVDIRDSLYRDDIKPGHVIEQFPKAKSIVKPGRKIFLYINAV,-1.32
16,HMSFNISPTKKLILELIMNGTAAVEAIAVKAGISKGMAYNHLRELRSMGYITDEGGYKITDSGRLAV,-0.414
17,HMIMISKSFEINEDNINKRLDIFLTENLDGLSRGIVQKYISLEQITVNKESSHKDYRLKLDDFIEVKIQAH,-3.76
18,HMYYSERILTILEERGISPYRVSKETGISQSVFSNWKRKPTSRITAANLERLADYLGLPVEVLTG,-3.45
19,HMGYDDLEPFDANGRLRWSDQELVLAFGRHRGATLRTLELNDPSYLRWLLSGNGPLEQQDIQRLEQILES,-1.26
20,HMEGTEILVNIRKGMTKEEIASLLVSKGLVEDKNTFLVQTALYTSDRYPIQPGSYTLNTAQTPEEMLAVMT,0.0128
21,HMIDFTHEDIERLWNAIVHYVPERQKSDMAIDFIKSLEDIGVEHDEIKASAEYDPKLEEAINTVY,-0.352
22,HMSKKQEQALQSREKLLDAATALFAEHGYRDTSVQAIGEKAGVSRGSIFWHFGSKEGLLWAVVERAFTA,0.265
23,HMGIVAPGTLKHLHAVGNSYYPDWETKRHELVTAVTKGRTSSSKELYEAEANRLITRIEELLMTAAQSV,-0.0132
24,HMNETLKQIRINALQYSEKDMATKLGLPLSEYKEIENDKPLNFTLLIRLSQAVGKTIDDLLNAQ,0.0115
25,HMQVTEVDYGTFMKMVEEKNVGEVEVGNSMIVFTDKDGKAIYKTGAMNDPNLTERLYNAGASFTKE,0.0396
